Assay results published in patent US20120082688A1, “In Vitro Generation of Myeloid Derived Suppressor Cells” (MOUNT SINAI SCHOOL OF MEDICINE, priority 2008, published 2012).
Entries after “also recorded” stand apart in the source; their conditions may differ.

Tests used:
[1] = tested on: HS-MDSC- and TD-MDSC-mediated suppression of T-cell proliferation; assay: Suppression assay with iNOS inhibitor / arginase inhibitor: MDSCs co-incubated with B6 splenocytes, anti-CD3/anti-CD28, [3H]-thymidine; type: cell-based, mouse
Protocol: The suppressive activity of MDSCs was assessed either by co-culturing 1×10^5 129SvEv (using B6 for HSC-MDSCs comparison) splenocytes with various numbers of CD115^+ cells or […] in the presence of anti-CD3/anti-CD28 (0.5 μg/ml) or by co-culturing 2×10^5 129SvEv splenocytes (responder) with an equal number of irradiated (25 Gy) BALB/c splenocytes (stimulator) in the presence of various numbers of CD115^+ or CD115^− cells for 4 days. [^3H]-thymidine was added for the last 8 hours of incubation. For Treg induction, 4×10^6/well of 129SvEv (B6 for HSC-MDSCs) splenocytes and 1×10^6 CD115^+ or CD115^− cells were cocultured for 5 days in the presence of anti-CD3/anti-CD28 (0.5 μg/ml). Foxp3 expression was determined by intracellular staining and NO level in the supernatant was measured by Greiss reagents (Sigma-Aldrich, St. Louis, Mo.).
To delineate which of the aforementioned suppressive mechanism(s) play a major role, the functional activity of HS-MDSCs was evaluated when specific pathway(s) were interfered. To evaluate the role of iNOS, HS-MDSCs (developed from Lin− B6 BM cells) or TD-MDSCs were co-incubated with B6 splenocytes at a 1:2 ratio in the absence or presence of various concentrations of L-NMMA (L) or NOHA (N), or combination of L-NMMA and NOHA. Cells were stimulated with anti-CD3/anti-CD28 and [3H]-thymidine was pulsed for the final 8 hours of a 3-day culture.

HoxB4 ES cells = assay: Differentiation of HoxB4 ES cells on OP9 stroma in M2 cytokine mix with added cytokines, FACS; type: cell-based, mouse
Protocol: Next, EB-derived cells were subjected to further differentiation by co-culturing them with OP9 stroma, an M-CSF-deficient cell line that has been widely used for in vitro differentiation of ES cells. For this, day 6 EBs (except otherwise specified) were trypsinized, and dissociated cells were seeded onto semiconfluent OP9 monolayers (irradiated immediately before coculture) at a density of 1×10^5/ml (2 ml/well, 6-well plate), and cultured in medium containing IMDM, 15% FCS (BenchMark, Gemcell), 2 mM L-glutamine, 100 U/mL penicillin and 100 μg/mL streptomycin, 1 ug/ml doxycycline, 1.5×10^−4M MTG, plus M1 cytokine mix composed of 1% c-kit Ligand (KL; CM), […] murine IL-6, and 0.5% WEHI (IL-3, CM). 2 days later, the medium was removed and replaced with 3 ml of fresh medium containing M2 cytokine mix consisting of 1% KL supernant, 0.5% murine thrombopoietin (TPO, CM), 40 ng/ml murine VEGF, 50 ng/ml murine Flt-3L or with medium containing M2 plus 10 ng/ml murine M-CSF (or M2+M-CSF) (all mouse recombinant cytokines were purchased from Peprotec Inc.), and medium was changed every other day thereafter. Unless otherwise specified, non-adherent and loosely attached cells were harvested after 10 days coculture in M2+M-CSF and used for morphologic, phenotypic, developmental, and functional analysis.
To enhance the production of ES cell-derived myeloid cells, additional cytokines were tested, including the colony-stimulating factor family members M-CSF and GM-CSF. […] For experiments in FIGS. 1C and D, Hoxb4 ES cells were differentiated with the same procedure as described in FIG. 1A, but in the last step cells were cultured for 10 day in M2 or M2 supplanted with M-CSF or GM-CSF (FIG. 1C) or M2 plus various concentration of M-CSF (FIG. 1D).

[2] = cytokine added to M2 cultures, 10 days

Molecule: CNC(=N)NCCC[C@H](N)C(=O)O [L-NMMA, N^G-monomethyl-L-arginine]
- reversal of MDSC suppression of T cells ([1]; 5 μM, MDSC:splenocyte 1:2, P<0.05 HSC MDSC, P<0.01 TD-MDSC): substantially reversed
- reversal of suppression of HS- and TD-MDSCs against T-cell proliferation ([1]; various concentrations, dose-dependent manner): partially but significantly reversed

Molecule: N=C(NO)NCCC[C@H](N)C(=O)O [NOHA]
- interference with suppressive activity of HSC-MDSC or TD-MDSC ([1]; 500 μM, MDSC:splenocyte 1:2, P>0.05): did not interfere significantly; also recorded: minimal effects

B1: granulocyte macrophage colony stimulating factor (protein, UniProt P01587 18-141, looked up)
Granulocyte-macrophage …: APTRSPITVTRPWKHVEAIKEALNLLDDMPVTLNEEVEVVSNEFSFKKLTCVQTRLKIFEQGLRGNFTKLKGALNMTASYYQTYCPPTPETDCETQVTTYADFIDSLKTFLTDIPFECKKPGQK
notes: colony-stimulating factor family cytokine added to M2 cultures
- change of CD115+Ly-6C^+ cells (HoxB4 ES cells; [2]): dramatic decrease
- change of CD115^−Ly-6C^+ cells (HoxB4 ES cells; [2]): marked increase

B2: macrophage colony-stimulating factor (protein, UniProt P07141 33-552, looked up)
Macrophage colony-stimulating …: KEVSEHCSHMIGNGHLKVLQQLIDSQMETSCQIAFEFVDQEQLDDPVCYLKKAFFLVQDIIDETMRFKDNTPNANATERLQELSNNLNSCFTKDYEEQNKACVRTFHETPLQLLEKIKNFFNETKNLLEKDWNIFTKNCNNSFAKCSSRDVVTKPDCNCLYPKATPSSDPASASPHQPPAPSMAPLAGLAWDDSQRTEGSSLLPSELPLRIEDPGSAKQRPPRSTCQTLESTEQPNHGDRLTEDSQPHPSAGGPVPGVEDILESSLGTNWVLEEASGEASEGFLTQEAKFSPSTPVGGSIQAETDRPRALSASPFPKSTEDQKPVDITDRPLTEVNPMRPIGQTQNNTPEKTDGTSTLREDHQEPGSPHIATPNPQRVSNSATPVAQLLLPKSHSWGIVLPLGELEGKRSTRDRRSPAELEGGSASEGAARPVARFNSIPLTDTGHVEQHEGSSDPQIPESVFHLLVPGIILVLLTVGGLLFYKWKWRSHRDPQTLDSSVGRPEDSSLTQDEDRQVELPV
notes: murine recombinant cytokine added to M2 cocktail
- production of both CD115^+ populations (HoxB4 ES cells; M2 plus cytokine, 10 days, dose-dependent): significantly augmented
- increase of frequency of both CD115 positive populations (HoxB4 ES cells; added along with M2): over 2 fold
- percentages of CD115^+ cells (HoxB4 ES cells; higher concentration, 20 ng/ml): decreased
